Data taken from the supplement of paper PMC9233669.
Variants at the floor of the assay were thinned out.

Tests used:
biotinyl-Ile-oxazolone = assay: self-aminoacylation, catalytic enhancement (BIO) (fold over background); higher = more active; k-Seq, kA / k0A0; sequences stand for … in GGGAAUGGAUCCACAUCUACGAAUUC…UUCACUGCAGACUUGACGAAGCUG
Procedure, shortened: (§1)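 Mutagenized RNA pools with a 21-nt variable region (0.43 μM) were reacted with each biotinyl-aminoacyl-oxazolone at 2–1250 μM for 90 minutes at room temperature, in 50 μL HEPES/NaCl/KCl/MgCl2/CaCl2 buffer containing 5% acetonitrile at pH 6.9–7.0. RNA captured on streptavidin was quantified by triplicate qPCR and by Illumina sequencing. The fraction reacted for each sequence was fit to a pseudo-first-order model with bootstrapping, and catalytic enhancement is the median kA divided by the uncatalyzed rate, taken as the low-activity peak of a bimodal Gaussian fit.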

biotinyl-Trp-oxazolone = assay: self-aminoacylation, catalytic enhancement (BWO) (fold over background); higher = more active; k-Seq, kA / k0A0; sequences stand for … in GGGAAUGGAUCCACAUCUACGAAUUC…UUCACUGCAGACUUGACGAAGCUG
Procedure, shortened: as §1

biotinyl-Leu-oxazolone = assay: self-aminoacylation, catalytic enhancement (BLO) (fold over background); higher = more active; k-Seq, kA / k0A0; sequences stand for … in GGGAAUGGAUCCACAUCUACGAAUUC…UUCACUGCAGACUUGACGAAGCUG
Procedure, shortened: as §1

biotinyl-Phe-oxazolone = assay: self-aminoacylation, catalytic enhancement (BFO) (fold over background); higher = more active; k-Seq, kA / k0A0; sequences stand for … in GGGAAUGGAUCCACAUCUACGAAUUC…UUCACUGCAGACUUGACGAAGCUG
Procedure, shortened: as §1

biotinyl-Met-oxazolone = assay: self-aminoacylation, catalytic enhancement (BMO) (fold over background); higher = more active; k-Seq, kA / k0A0; sequences stand for … in GGGAAUGGAUCCACAUCUACGAAUUC…UUCACUGCAGACUUGACGAAGCUG
Procedure, shortened: as §1

biotinyl-Val-oxazolone = assay: self-aminoacylation, catalytic enhancement (BVO) (fold over background); higher = more active; k-Seq, kA / k0A0; sequences stand for … in GGGAAUGGAUCCACAUCUACGAAUUC…UUCACUGCAGACUUGACGAAGCUG
Procedure, shortened: as §1

Sequence	self-aminoacylation (biotinyl-Ile-oxazolone)	self-aminoacylation (biotinyl-Trp-oxazolone)	self-aminoacylation (biotinyl-Leu-oxazolone)	self-aminoacylation (biotinyl-Phe-oxazolone)	self-aminoacylation (biotinyl-Met-oxazolone)	self-aminoacylation (biotinyl-Val-oxazolone)
AAAACCCUGGUCAUCGAGUGA [Fam2.1 aminoacylation ribozyme variant]	26.8	73.3	65.1	462	66.9	26.3
AAACACCUAGGUCAUCGGGUG [Fam2.2 aminoacylation ribozyme variant]	3.41	4.7	3.04	23.9	2.46	3.09
AAACUUGCUAAUAGUCGCAAG [Fam3.1 aminoacylation ribozyme variant]	2.62	4.6	1.29	2.21	1.76	1.97
AAAUGUGCUAAUAGUCGCAAG [Fam3.1 aminoacylation ribozyme variant]	2.12	1.48	1.53	2.84	2.16	1.46
AAAUUGGCUAAUAGUCGCAAG [Fam3.1 aminoacylation ribozyme variant]	2.32	3.11	2.05	2.72	1.84	2.05
AAAUUUGCUAAGAGUCGCAAG [Fam3.1 aminoacylation ribozyme variant]	2.05	2.51	–	2.61	–	–
AAAUUUGCUAAUAGUCGCAAA [Fam3.1 aminoacylation ribozyme variant]	3.32	3.82	3.17	2.95	3.08	2.41
AAAUUUGCUAAUAGUCGCAGG [Fam3.1 aminoacylation ribozyme variant]	1.97	3.16	2.47	2.3	2.11	1.79
AAAUUUGUUAAUAGUCGCAAG [Fam3.1 aminoacylation ribozyme variant]	2.11	1.76	1.99	2.69	2.04	1.59
AACAUUGCUAAUAGUCGCAAG [Fam3.1 aminoacylation ribozyme variant]	2.5	2.67	–	2.9	–	–
AACUAUGCUAAUAGUCGCAAG [Fam3.1 aminoacylation ribozyme variant]	2.41	–	2.16	2.45	–	–
AACUUUGCUAAUAAUCGCAAG [Fam3.1 aminoacylation ribozyme variant]	1.93	2.71	2.04	3.06	1.96	1.96
AACUUUGCUAAUAGGCGCAAG [Fam3.1 aminoacylation ribozyme variant]	2.36	1.96	1.79	3.02	1.7	2.05
AACUUUGCUAAUAGUGGCAAG [Fam3.1 aminoacylation ribozyme variant]	1.07	1.11	1.44	1.37	0.764	0.919
AACUUUGCUAAUAGUUGCAAG [Fam3.1 aminoacylation ribozyme variant]	2.21	–	–	3.03	–	–
AACUUUGCUAAUAUUCGCAAG [Fam3.1 aminoacylation ribozyme variant]	1.76	1.75	1.94	1.42	1.51	1.65
AAGAUUGCUAAUAGUCGCAAU [Fam3.1 aminoacylation ribozyme variant]	1.54	1.14	1.37	2.37	1.85	1.41
AAGAUUGCUAAUAGUCGCGAG [Fam3.1 aminoacylation ribozyme variant]	1.3	1.1	1.1	1.27	1.94	1.44
AAGAUUGCUAAUAUUCGCAAG [Fam3.1 aminoacylation ribozyme variant]	2.02	2.51	1.58	1.44	1.42	1.5
AAGAUUGCUAAUGGUCGCAAG [Fam3.1 aminoacylation ribozyme variant]	1.21	1.06	1.07	1.11	1.51	1.14
AAGAUUGCUAGUAGUCGCAAG [Fam3.1 aminoacylation ribozyme variant]	1.36	1.48	1.89	1.28	1.83	1.61
AAGCUUGCUACUAGUCGCAAG [Fam3.1 aminoacylation ribozyme variant]	2.45	2.23	2.03	–	2.37	–
AAGCUUGCUGAUAGUCGCAAG [Fam3.1 aminoacylation ribozyme variant]	2.19	3.03	–	4.23	2.4	2.45
AAGUUGGCUAACAGUCGCAAG [Fam3.1 aminoacylation ribozyme variant]	2.05	2.26	–	2.15	–	–
ACGCUUGCUAAUAGUCGCAAG [Fam3.1 aminoacylation ribozyme variant]	2.28	2.88	–	5.67	2.29	–
AUUAACCUGGUCCUCGAGUGA [Fam2.1 aminoacylation ribozyme variant]	2.3	4.11	4.42	19.7	3.92	–
AUUACACUCGUCAUCGAGUGA [Fam2.1 aminoacylation ribozyme variant]	2.13	4.43	3.87	18	3.51	–

Sequence	self-aminoacylation (biotinyl-Ile-oxazolone)	self-aminoacylation (biotinyl-Trp-oxazolone)	self-aminoacylation (biotinyl-Leu-oxazolone)	self-aminoacylation (biotinyl-Phe-oxazolone)	self-aminoacylation (biotinyl-Met-oxazolone)	self-aminoacylation (biotinyl-Val-oxazolone)
AUUACCCUGGUCAUCGCUUGA [Fam2.1 aminoacylation ribozyme variant]	2.09	3.08	–	10.7	2.25	–
AUUCACAUAGGUCAUCUGGUG [Fam2.2 aminoacylation ribozyme variant]	2.1	3.03	3.86	15.7	2.89	–
AUUCACCUAAGUCAUUGGGUG [Fam2.2 aminoacylation ribozyme variant]	2.31	2.6	3.65	20.5	3.48	–
AUUCACCUAGAUCAUAGGGUG [Fam2.2 aminoacylation ribozyme variant]	–	2.9	4.64	13.6	3.97	2.07
AUUCACCUAGGUCAUCGAGUU [Fam2.2 aminoacylation ribozyme variant]	2.69	–	4.79	7.47	3.3	2.25
AUUCACCUAGGUCUUCGGGGG [Fam2.2 aminoacylation ribozyme variant]	3.04	–	3.62	12	2.43	3.04
AUUCACCUAGUUCAUCGGGUG [Fam2.2 aminoacylation ribozyme variant]	–	2.49	2.74	12.9	2.49	2.15
AUUCACCUAUUUCAUCGGGUG [Fam2.2 aminoacylation ribozyme variant]	–	3.17	3.49	8.43	2.93	2.02
AUUCACCUGGGUCAUCGGGCG [Fam2.2 aminoacylation ribozyme variant]	3.58	2.91	5.26	–	4.48	4.75
AUUCACCUUGGUCAUCUGGUG [Fam2.2 aminoacylation ribozyme variant]	–	2.75	3.3	17.9	2.82	2.16
AUUCACUUAGGUCAUCGGGUA [Fam2.2 aminoacylation ribozyme variant]	2.29	–	–	–	2.38	2.15
AUUGCCCUGGUCAUCGAGUGC [Fam2.1 aminoacylation ribozyme variant]	–	4.08	4.73	11.6	4.79	2.32
AUUUACCUAGUUCAUCGGGUG [Fam2.2 aminoacylation ribozyme variant]	2.13	2.25	3.25	15.2	2.61	–
CAACACUUCAAGCAAUCGGGC [Fam1B.1 aminoacylation ribozyme variant]	2.15	–	2.2	4.52	2.2	2.23
CAGUUUGCUAAUAGUCGCAAU [Fam3.1 aminoacylation ribozyme variant]	2.06	–	–	2	–	–
CAGUUUGCUAAUAGUCGCGAG [Fam3.1 aminoacylation ribozyme variant]	2.33	3.86	3.12	12.2	–	2.01
CCACACAUCAAGCAAUCGGGC [Fam1B.1 aminoacylation ribozyme variant]	2.01	2.1	–	–	–	–
CCACACCUCAAGCAAUCGCUC [Fam1B.1 aminoacylation ribozyme variant]	2.12	3.13	2.72	9.63	2.85	–
CCACACUUCAAGCCAUCCGUC [Fam1B.1 aminoacylation ribozyme variant]	2.04	–	–	–	–	–
CCACACUUCAUGCAAUCGGCC [Fam1B.1 aminoacylation ribozyme variant]	2.44	–	2.72	14.2	2.9	2.8
CCACCCUUCAAGCAAUCGGGC [Fam1B.1 aminoacylation ribozyme variant]	2.06	2.65	–	15.4	–	3.02
CUACUUCAAACACUCGGGCUG [Fam1A.1 aminoacylation ribozyme variant]	2.18	–	2.06	–	–	2.2
CUUACCGUGGUCAUCGAGUGA [Fam2.1 aminoacylation ribozyme variant]	–	3.87	2.59	10.3	3.29	2.68
CUUACCUUGGUCAUCGAGUGA [Fam2.1 aminoacylation ribozyme variant]	–	3.9	2.99	3.62	3.25	2.66
GCACACUUCAAACAAUCGGUC [Fam1B.1 aminoacylation ribozyme variant]	–	59	2.99	92.2	2.13	2.19
GCACACUUCAAGCAACCGGUC [Fam1B.1 aminoacylation ribozyme variant]	2.31	4.35	2.46	2.92	–	2.43
